Publication PMC4880913

Experiments:
[1] = target: fluorescein-labeled BclxLΔTM (human) (UniProt Q07817); assay: fluorescence polarisation; 100 nM N-terminally fluorescein-labeled BclxLΔTM titrated with increasing amounts of p63-DBD; 10 mM sodium phosphate pH 7.2, 1 mM DTT; one-site or cooperative binding model; triplicate
p63-DBD = target: T1, p63-DBD (UniProt Q9H3D4); assay: fluorescence polarization; settings: FP: 100 nM 5'-fluorescein dsDNA, 10 mM sodium phosphate pH 7.2, 1 mM DTT, temperature not stated; NMR: 1 mM sodium phosphate pH 7.2, 100 mM NaCl, 5 mM DTT …
T1 sequence: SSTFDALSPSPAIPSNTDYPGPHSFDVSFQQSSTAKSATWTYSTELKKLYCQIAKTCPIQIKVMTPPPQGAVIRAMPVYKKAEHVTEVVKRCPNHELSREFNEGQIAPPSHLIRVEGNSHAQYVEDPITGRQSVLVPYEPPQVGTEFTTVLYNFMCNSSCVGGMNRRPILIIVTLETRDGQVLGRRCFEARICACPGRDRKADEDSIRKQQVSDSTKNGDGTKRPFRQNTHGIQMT

p53 DBD (Homo sapiens) = p53 DBD (Homo sapiens) (UniProt P04637); settings: cited from earlier work
Chain of p53 DBD (Homo sapiens) (P04637 94-312): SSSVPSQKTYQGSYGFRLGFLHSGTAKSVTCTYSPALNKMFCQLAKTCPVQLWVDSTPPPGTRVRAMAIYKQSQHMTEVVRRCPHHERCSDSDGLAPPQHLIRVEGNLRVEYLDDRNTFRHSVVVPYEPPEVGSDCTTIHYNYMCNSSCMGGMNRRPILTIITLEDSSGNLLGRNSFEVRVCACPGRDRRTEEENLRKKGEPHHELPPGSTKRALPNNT

Chain of fluorescein-labeled BclxLΔTM (human) (Q07817 1-212, stated change not applied): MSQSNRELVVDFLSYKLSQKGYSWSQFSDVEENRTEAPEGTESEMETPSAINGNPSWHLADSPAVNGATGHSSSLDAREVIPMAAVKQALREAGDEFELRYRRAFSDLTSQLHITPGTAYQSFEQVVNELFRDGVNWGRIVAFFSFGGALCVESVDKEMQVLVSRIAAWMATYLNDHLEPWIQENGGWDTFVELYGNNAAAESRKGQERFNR
Chain of BclxL (Q07817 whole entry): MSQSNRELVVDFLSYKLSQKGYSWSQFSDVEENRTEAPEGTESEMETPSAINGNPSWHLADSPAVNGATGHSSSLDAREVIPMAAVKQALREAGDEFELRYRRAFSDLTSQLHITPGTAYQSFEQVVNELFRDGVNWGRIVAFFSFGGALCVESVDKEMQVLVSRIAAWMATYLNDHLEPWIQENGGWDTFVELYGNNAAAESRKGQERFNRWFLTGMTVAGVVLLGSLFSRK

Row | Substance | binding signal (fold lower affinity than p53-DBD) (p63-DBD) | further results
1 | p63 DNA binding domain (from UniProt Q9H3D4 153-388) (domain or fragment) |  | Kd [1]: 38 µM
2 | Bax response element | 2 | 
3 | p21 response element | 2 | 
4 | BclxL (from UniProt Q07817) |  | Kd (p53 DBD (Homo sapiens)): 5.5 µM
5 | Jag-1 response element | 2 | 
